In patent US20090176205, “Mutant proteins in the dna-binding domain of a telomeric protein, trf2, and telomeric dna mutants, and use of the complex structure of the trf2 dna-binding domain and telomeric dna” (published 2009):
Substitutions are numbered along the chain they refer to. Names may count otherwise.

T1: hTRF2-DBD dm (A471S/A484S) (Homo sapiens, UniProt Q15554 SEQ:1-63)
T1 chain: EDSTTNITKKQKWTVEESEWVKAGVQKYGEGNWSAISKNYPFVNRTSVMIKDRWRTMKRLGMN

T2: hTRF2-DBD K447R (Homo sapiens, UniProt Q15554 SEQ:1-63)
T2 chain: T1 chain with K10R, S34A, S47A

T3: hTRF2-DBD R496K (Homo sapiens, UniProt Q15554 SEQ:1-63)
T3 chain: T1 chain with S34A, S47A, R59K

T4: hTRF2-DBD A484S (Homo sapiens, UniProt Q15554 SEQ:1-63)
T4 chain: T1 chain with S34A

T5: hTRF2-DBD A471S (Homo sapiens, UniProt Q15554 SEQ:1-63)
T5 chain: T1 chain with S47A

T6: hTRF2-DBD qm (K447R/A471S/A484S/R496K) (Homo sapiens, UniProt Q15554 SEQ:1-63)
T6 chain: T1 chain with K10R, R59K

B1: tr13 (dsDNA)
DNA 1: GTTAGGGTTAGGG
DNA 2: CCCTAACCCTAAC
B2: T3G (dsDNA)
DNA 1: GTGAGGGTTAGGG
DNA 2: CCCTAACCCTCAC
B3: G7C (dsDNA)
DNA 1: GTTAGGCTTAGGG
DNA 2: CCCTAAGCCTAAC
B4: T9G (dsDNA)
DNA 1: GTTAGGGTGAGGG
DNA 2: CCCTCACCCTAAC

Experiments:
[1] = target: T7, hTRF1 (DNA-binding domain) (Homo sapiens, UniProt P54274 P54274:371-439); experiment: SPR; 10 mM HEPES-KOH pH 6.8, 3 mM EDTA, 180 mM KCl, 0.003% Triton X-100, 293 K; details: label: biotin (13mer on SA chip)
T7 sequence (P54274 371-439, one chain of several): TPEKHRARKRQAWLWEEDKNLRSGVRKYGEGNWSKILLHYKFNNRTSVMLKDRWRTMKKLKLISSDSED
Protocol: The same experiments were performed on hTRF1 under the same conditions.
(§1) Affinity analysis was performed using a Biacore 3000 instrument. All experiments were performed at 293 K using a buffer containing 10 mM HEPES-KOH, 3 mM EDTA, 180 mM KCl and 0.003% Triton X-100 (v/v) (pH 6.8). Flow cells of an SA streptavidin sensor chip were coated with the 13mer oligonucleotide biotinylated. The proteins were injected into flow cells over 3-5 min at a flow rate of 10 μL/min until the reaction of protein with DNA had been equilibrated. Bound proteins were removed by a 30-sec wash with 2M KCl. An equilibrium dissociate constant (Kd) was calculated from a Scatchard analysis of the RU values in the equilibrium region of the sensorgram at each analyte concentration. The affinity data were analyzed using BIAevaluation ver. 3.2 software.

hTRF2-DBD wild type [2] = target: T8, hTRF2-DBD wild type (Homo sapiens, UniProt Q15554 SEQ:1-63); experiment: SPR; pH 6.8, 180 mM KCl, 293 K; 1:1 complex also shown by NMR titration and structure; details: tags: N-terminal Met added; untagged, E. coli BL21(DE3) pET23b; label: biotin (13mer on SA chip)
Protocol: (§2) The same experiments were performed on the six mutants of hTRF2 under the same conditions. […] Further, the six mutants were analyzed by SPR for the three DNAs T3G, G7C and T9G, as well as tr13. As a result, Kd values for T3G are about 7 times higher than those values for tr13; and Kd values for T9G are about 100 times higher than those values for tr13. […] Since C7′ is changed to G7′ in G7C, Asp489 which recognizes C7′ has become incapable of recognizing DNA. Thus, interaction with DNA is assumed to be non-specific. Although the affinity to T9G is about 10 times lower than the affinity to G7C, differences in Kd values of individual mutants for DNA show relatively similar tendencies to those observed in tr13 and T3G. It is believed that the binding mode between the major groove and recognition helix is not changed and that only the affinity to T9G is merely very low.
as §1, with “KCl.” for “KCl. An equilibrium dissociate constant (Kd) was calculated from a Scatchard analysis of the RU values in the equilibrium region of the sensorgram at each analyte concentration. The affinity data were analyzed using BIAevaluation ver. 3.2 software.”

[3] = target: T1, hTRF2-DBD dm (A471S/A484S); experiment: SPR; pH 6.8, 180 mM KCl, 293 K; details: tags: N-terminal Met added; untagged, E. coli BL21(DE3) pET23b; label: biotin (13mer on SA chip)
Protocol: as §2
as §1, with “KCl.” for “KCl. An equilibrium dissociate constant (Kd) was calculated from a Scatchard analysis of the RU values in the equilibrium region of the sensorgram at each analyte concentration. The affinity data were analyzed using BIAevaluation ver. 3.2 software.”

hTRF2-DBD K447R = target: T2, hTRF2-DBD K447R; experiment: SPR; pH 6.8, 180 mM KCl, 293 K; details: tags: N-terminal Met added; untagged, E. coli BL21(DE3) pET23b; label: biotin (13mer on SA chip)
Protocol: as §2
as §1, with “KCl.” for “KCl. An equilibrium dissociate constant (Kd) was calculated from a Scatchard analysis of the RU values in the equilibrium region of the sensorgram at each analyte concentration. The affinity data were analyzed using BIAevaluation ver. 3.2 software.”

hTRF2-DBD R496K = target: T3, hTRF2-DBD R496K; experiment: SPR; pH 6.8, 180 mM KCl, 293 K; details: tags: N-terminal Met added; untagged, E. coli BL21(DE3) pET23b; label: biotin (13mer on SA chip)
Protocol: as §2
as §1, with “KCl.” for “KCl. An equilibrium dissociate constant (Kd) was calculated from a Scatchard analysis of the RU values in the equilibrium region of the sensorgram at each analyte concentration. The affinity data were analyzed using BIAevaluation ver. 3.2 software.”

hTRF2-DBD A484S = target: T4, hTRF2-DBD A484S; experiment: SPR; pH 6.8, 180 mM KCl, 293 K; details: tags: N-terminal Met added; untagged, E. coli BL21(DE3) pET23b; label: biotin (13mer on SA chip)
Protocol: as §2
as §1, with “KCl.” for “KCl. An equilibrium dissociate constant (Kd) was calculated from a Scatchard analysis of the RU values in the equilibrium region of the sensorgram at each analyte concentration. The affinity data were analyzed using BIAevaluation ver. 3.2 software.”

hTRF2-DBD A471S = target: T5, hTRF2-DBD A471S; experiment: SPR; pH 6.8, 180 mM KCl, 293 K; details: tags: N-terminal Met added; untagged, E. coli BL21(DE3) pET23b; label: biotin (13mer on SA chip)
Protocol: as §2
as §1, with “KCl.” for “KCl. An equilibrium dissociate constant (Kd) was calculated from a Scatchard analysis of the RU values in the equilibrium region of the sensorgram at each analyte concentration. The affinity data were analyzed using BIAevaluation ver. 3.2 software.”

[4] = target: T6, hTRF2-DBD qm (K447R/A471S/A484S/R496K); experiment: SPR; pH 6.8, 180 mM KCl, 293 K; details: tags: N-terminal Met added; untagged, E. coli BL21(DE3) pET23b; label: biotin (13mer on SA chip)
Protocol: as §2
as §1, with “KCl.” for “KCl. An equilibrium dissociate constant (Kd) was calculated from a Scatchard analysis of the RU values in the equilibrium region of the sensorgram at each analyte concentration. The affinity data were analyzed using BIAevaluation ver. 3.2 software.”

hTRF2-DBD wild type [5] = target: T8, hTRF2-DBD wild type; experiment: SPR; pH 6.8, 180 mM KCl, 293 K; details: tags: N-terminal Met added; untagged, E. coli BL21(DE3) pET23b; label: biotin (13mer on SA chip)
Protocol: as §2
as §1, with “KCl.” for “KCl. An equilibrium dissociate constant (Kd) was calculated from a Scatchard analysis of the RU values in the equilibrium region of the sensorgram at each analyte concentration. The affinity data were analyzed using BIAevaluation ver. 3.2 software.”

[6] = target: T7, hTRF1 (DNA-binding domain); experiment: SPR; pH 6.8, 180 mM KCl, 293 K; details: label: biotin (13mer on SA chip)
Protocol: as §2
as §1, with “KCl.” for “KCl. An equilibrium dissociate constant (Kd) was calculated from a Scatchard analysis of the RU values in the equilibrium region of the sensorgram at each analyte concentration. The affinity data were analyzed using BIAevaluation ver. 3.2 software.”

Binder | Kd [1] | Kd (hTRF2-DBD wild type [2]) | Kd [3] | Kd (hTRF2-DBD K447R) | Kd (hTRF2-DBD R496K) | Kd (hTRF2-DBD A484S) | Kd (hTRF2-DBD A471S) | Kd [4] | Kd (hTRF2-DBD wild type [5]) | Kd [6]
B1 | 186 nM | 748 nM | 0.385 µM | 0.297 µM | 0.764 µM | 0.55 µM | 0.482 µM | 0.196 µM |  | 
B2 |  |  | 2.58 µM | 2.19 µM | 4.92 µM | 4.03 µM | 3.07 µM |  | 5.94 µM | 0.795 µM
B3 |  |  | 33.8 µM | 24.5 µM | 87 µM | 50.7 µM | 32.3 µM |  |  | 12.2 µM
B4 |  |  | 47.9 µM | 37 µM | 114 µM | 69.1 µM | 44.2 µM | 26.5 µM | 110 µM | 3.14 µM
